Drawing on PMC3554717, this text covers response (arbitrary units) for 1 substance.

The experiment deals with endogenous CSK (Jurkat) (UniProt P41240). Nature of the experiment: GST pull-down, CSK immunoblot densitometry. The following applies: Jurkat cell lysates (3×10^8 cells divided into five tubes); GST alone lane 0.00; parent: 84.98. On the technique in general: Immunoblotting shows a protein as a band on a membrane.
Sequence of endogenous CSK (Jurkat) (P41240 whole entry): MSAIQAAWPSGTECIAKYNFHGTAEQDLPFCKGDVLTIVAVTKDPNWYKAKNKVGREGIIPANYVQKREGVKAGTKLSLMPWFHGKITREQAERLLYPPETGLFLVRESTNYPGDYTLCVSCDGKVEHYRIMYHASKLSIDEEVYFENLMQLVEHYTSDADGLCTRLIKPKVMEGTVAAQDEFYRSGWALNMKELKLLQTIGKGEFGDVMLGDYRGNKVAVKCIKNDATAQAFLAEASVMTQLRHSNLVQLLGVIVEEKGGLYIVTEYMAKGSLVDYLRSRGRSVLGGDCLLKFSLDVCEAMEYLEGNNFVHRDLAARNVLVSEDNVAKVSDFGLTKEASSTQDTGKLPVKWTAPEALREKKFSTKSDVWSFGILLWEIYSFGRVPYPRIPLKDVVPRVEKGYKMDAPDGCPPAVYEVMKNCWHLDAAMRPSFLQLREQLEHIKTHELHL

As to “LYP P1 motif (Arg620) fused to GST R620W”, the response (arbitrary units) is -0.
